The record followed here is article PMC3508906 (Channels, 2012).

Usually stoichiometry N stands for the number of molecules, sites or subunits per partner or assembly.

The series deals with the molecule itself. Nature of the series: SEC-MALS. In general terms: In gel filtration, larger molecules generally elute earlier.

B1: YnaI, C-terminally His-tagged (pYnaI) (natural protein, E. coli, UniProt P0AEB5 1-343, looked up)
chain: MIAELFTNNALNLVIIFGSCAALILMSFWFRRGNRKRKGFLFHAVQFLIYTIIISAVGSIINYVIENYKLKFITPGVIDFICTSLIAVILTIKLFLLINQFEKQQIKKGRDITSARIMSRIIKITIIVVLVLLYGEHFGMSLSGLLTFGGIGGLAVGMAGKDILSNFFSGIMLYFDRPFSIGDWIRSPDRNIEGTVAEIGWRITKITTFDNRPLYVPNSLFSSISVENPGRMTNRRITTTIGLRYEDAAKVGVIVEAVREMLKNHPAIDQRQTLLVYFNQFADSSLNIMVYCFTKTTVWAEWLAAQQDVYLKIIDIVQSHGADFAFPSQTLYMDNITPPEQGR
Turning to B1, the “stoichiometry N” value worked out at 7.

B2: YbiO, C-terminally His-tagged (pYbiO) (natural protein, E. coli K12 MG1655, UniProt P75783 19-741, looked up)
chain: VSIPGVTTTTTTDSTTEPAPEPDIEQKKAAYGALADVLDNDTSRKELIDQLRTVAATPPAEPVPKIVPPTLVEEQTVLQKVTEVSRHYGEALSARFGQLYRNITGSPHKPFNPQTFSNALTHFSMLAVLVFGFYWLIRLCALPLYRKMGQWARQKNRERSNWLQLPAMIIGAFIIDLLLLALTLFVGQVLSDNLNAGSRTIAFQQSLFLNAFALIEFFKAVLRLIFCPNVAELRPFTIQDESARYWSRRLSWLSSLIGYGLIVAVPIISNQVNVQIGALANVIIMLCMTVWALYLIFRNKKEITQHLLNFAEHSLAFFSLFIRAFALVWHWLASAYFIVLFFFSLFDPGNSLKFMMGATVRSLAIIGIAAFVSGMFSRWLAKTITLSPHTQRNYPELQKRLNGWLSAALKTARILTVCVAVMLLLSAWGLFDFWNWLQNGAGQKTVDILIRIALILFFSAVGWTVLASLIENRLASDIHGRPLPSARTRTLLTLFRNALAVIISTITIMIVLSEIGVNIAPLLAGAGALGLAISFGSQTLVKDIITGVFIQFENGMNTGDLVTIGPLTGTVERMSIRSVGVRQDTGAYHIIPWSSITTFANFVRGIGSVVANYDVDRHEDADKANQALKDAVAELMENEEIRGLIIGEPNFAGIVGLSNTAFTLRVSFTTLPLKQWTVRFALDSQVKKHFDLAGVRAPVQTYQVLPAPGATPAEPLPPGEPTL
For the protein B2, the “stoichiometry N” value was found to be 7.
